According to US20240344040A1, “PROKARYOTIC AND EUKARYOTIC CELLS WITH BIOSYNTHESIZED SULFOTYROSINE FOR GENETIC INCORPORATION” (William Marsh Rice University, priority 2023, published 2024):
*: point of attachment. sulfate = O=S(=O)(O)*

B1: A0A091VQH7: putative sulfotransferase from Nipponia nippon, SEQ ID NO: 1 (protein)
chain: IALDKMEDLSLKETVVSRAEICEVEGIPFTKPICSTWDQVWKFKARPDDLLIATYTKAGTTWTQEIVDMIQQNGDVEKCRRATTYRRHPFLEWSIQEPPAASYSGLELAEAMPSPRTIKTHLPVQLLPPSFWEQNCKIIYVARNAKDNLVSYYHFHRMSKEMPDPGTWEEFMEKFMTGKVLWGSWYDHVKGWWKAKDRHRILYLFYEDMKENPKQEIQKILKFLEKDVNQEVLNKILHNTSFEIMKDNPMTNYTTEFQGIMDHSISPFMRKGVVGDWKNYFTVAQNEKFDEDYKKKMADTSLVFRTEL
modifications: Nipponia nippon
B2: hirudin: thrombin inhibitor; tyrosine-sulfated form compared with unsulfated; SEQ ID NO: 109 in Table 1 (protein, listed as Hirudo medicinalis)
chain: MKKNIAFLLASMFVFSIATNAYAMRYTACTESGQNQCICEGNDVCGQGRNCQFDSSGKKCVEGEGTRKPQNEGQHDFDPIPEEYLSHHHHHH
modifications: tyrosine sulfation
B3: Madanin-1 sulfated at both Tyr32 and Tyr35 (protein)
chain: MYPERDSAKEGNQEQERALHVKVQKRTDGDADY(sulfate)DEY(sulfate)EEDGTTPTPDPTAPTAKPRLRGNKPHHHHHH
B4: wildtype chimadanin: thrombin inhibitor from the salivary gland of Haemaphysalis longicornis, His-tagged, expressed in E. coli; Table 1 sequence names seem swapped (protein)
chain: MQPKEKTKGVEVEGNPATLISARQMDVSYDEYEDNGPDVIPGEPAKPRGGPKNGAASGKFDQIPDFSSESHHHHHHH

Experiments:
[1] = tested on: tyrosine sulfation (sulfotyrosine-containing sfGFP production); test: green fluorescent protein assay of tyrosine sulfotransferase activity; format: cell-based, Escherichia coli; conditions: BL21(DE3), pBad vector, sfGFP134TAG reporter, LB medium
Description: To explore the activity of these sulfotransferases towards tyrosine, a green fluorescent protein assay was used (Chen et al., 2018; Chen et al., 2019). […] The suppressor plasmid (pUltra-sulfotyrosine) was used to suppress the amber codon (Asp134TAG) within a sfGFP variant encoded by the pLei-sfGFP134TAG plasmid in the presence of sulfotyrosine. Expression of full-length sfGFP was carried out in LB medium for 16 hours in parallel with controls BL21(DE3) harboring pUltra-sulfotyrosine, pLei-sfGFP134TAG and pBad-Empty in the presence and absence of exogenously fed 1 mM sulfotyrosine.

[2] = target: T1, thrombin (Homo sapiens, UniProt P00734); conditions: sulfated versus unsulfated hirudin; cited from earlier work
[3] = target: T1, thrombin; test: chromogenic thrombin amidolytic activity assay; format: biochemical; conditions: tight-binding model, Morrison equation; inhibitors expressed in E. coli, sulfotyrosine biosynthesized; read-out: Ki, inhibition of thrombin activity
Description: FIG. 18: Inhibition constants (Ki) of all thrombin inhibitors used in this study: Ki+standard error were calculated based on a tight-binding model, using Morrison equation in Prism. Standard errors were calculated from n=3 independent samples.
To test the thrombin inhibiting activity of the wild type inhibitors and their sulfotyrosine-containing mutants, chromogenic thrombin amidolytic activity assays were performed in the presence of a range of concentrations of each inhibitor. […] Double sulfation of chimadanin at both Tyr28 and Tyr31 further improved its Ki to 0.1 nM, consistent with the madanin-1 study. […] This may be due to the fact that co-translational folding is more efficient than that achieved via chemical synthesis.

Row | Molecule | Ki [3] | other results
1 | B1 |  | increase in fluorescence compared to cells not given exogenous sulfotyrosine [1]: 2.5 fold
2 | B2 |  | increase of affinity for thrombin by tyrosine sulfation [2]: more than 10 fold
3 | B3 | 0.5 nM | 
4 | B4 | 12.9 nM | 
